Experimental findings from patent publication US10766960 (dated 2020) are described below.

As usually defined, the Kd is the constant that tells how readily two partners part at equilibrium. Read a high Kd as lower affinity.

In one assay the target is T1, FcgRIIb (human, UniProt P31994).
T1 chain: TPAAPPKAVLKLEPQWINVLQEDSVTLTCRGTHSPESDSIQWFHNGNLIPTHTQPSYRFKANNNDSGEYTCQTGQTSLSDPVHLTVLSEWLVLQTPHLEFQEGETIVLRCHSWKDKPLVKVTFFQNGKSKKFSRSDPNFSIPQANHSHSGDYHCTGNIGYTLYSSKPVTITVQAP
Description: SPR. On the technique in general: In SPR one partner is held on a chip, and binding of the other changes the refractive index at the surface.

For another assay, the target named is FcgRIIIa F (human, UniProt P08637). Nature of the assay: SPR.
FcgRIIIa F, sequence (P08637 17-208): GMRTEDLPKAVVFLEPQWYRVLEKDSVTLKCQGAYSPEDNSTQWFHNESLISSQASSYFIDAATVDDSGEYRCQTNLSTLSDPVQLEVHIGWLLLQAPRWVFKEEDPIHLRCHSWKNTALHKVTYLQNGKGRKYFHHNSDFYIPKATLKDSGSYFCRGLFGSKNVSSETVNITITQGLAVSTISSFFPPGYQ

B1: GpH7-TA7/GpH7-B3/GpL16-k0 (antibody)
chain 1: QVQLVQSGAEVKKPGASVTVSCKASGYTFTDYEMHWIRQPPGEGLEWIGAIDPKTGDTAYSESFQDRVTLTADKSTSTAYMELSSLTSEDTAVYYCTRFYSYTYWGQGTLVTVSSASTKGPSVFPLAPSSKSTSGGTAALGCLVKDYFPEPVTVSWNSGALTSGVHTFPAVLQSSGLYSLSSVVTVPSSSLGTQTYICNVNHKPSNTKVDKKVEPKSCDKTHTCPPCPAPEYLWGPSVFLFPPKPKDTLMISRTPEVTCVVVDVSHEDPEVKFNWYVDGVEVHNAKTKPREEQYNATYRVVSVLTVLHQDWLNGKEYKCKVSNKALPAPIEKTISKAKGQPREPQVYTLPPSRKELTKNQVSLTCLVKGFYPSDIAVEWESNGQPENNYKTTPPVLDSDGSFFLYSKLTVDKSRWQQGNVFSCSVMHEALHNRYTQKSLSLSP
chain 2: not shown
chain 3: DIVMTQSPLSLPVTPGEPASISCQASESLVHSNRNTYLHWYLQKPGQSPQLLIYKVSNRFSGVPDRFSGSGSGTDFTLKISRVEAEDVGVYYCSQNTHVPPTFGQGTKVEIERTVAAPSVFIFPPSDEQLKSGTASVVCLLNNFYPREAKVQWKVDNALQSGNSQESVTEQDSKDSTYSLSSTLTLSKADYEKHKVYACEVTHQGLSSPVTKSFNRGEC
Take B1: the Kd amounted to 4500 nM with FcgRIIb and 320 nM with FcgRIIIa F.

B2: GpH7-A57/GpH7-B78/GpL16-k0 (antibody)
chain 1: QVQLVQSGAEVKKPGASVTVSCKASGYTFTDYEMHWIRQPPGEGLEWIGAIDPKTGDTAYSESFQDRVTLTADKSTSTAYMELSSLTSEDTAVYYCTRFYSYTYWGQGTLVTVSSASTKGPSVFPLAPSSKSTSGGTAALGCLVKDYFPEPVTVSWNSGALTSGVHTFPAVLQSSGLYSLSSVVTVPSSSLGTQTYICNVNHKPSNTKVDKKVEPKSCDKTHTCPPCPAPELLGGPDVFLFPPKPKDTLMISRTPEVTCVVVDVSHEDPEVKFNWYVDGVEVHNAKTKPREEQYNSTYRVVSVLTVLHQDWLNGKEYKCKVSNKALPLPEEKTISKAKGQPREPQVYTLPPSRKELTKNQVSLTCLVKGFYPSDIAVEWESNGQPENNYKTTPPVLDSDGSFFLYSKLTVDKSRWQQGNVFSCSVMHEALHNRYTQKSLSLSP
chain 2: QVQLVQSGAEVKKPGASVTVSCKASGYTFTDYEMHWIRQPPGEGLEWIGAIDPKTGDTAYSESFQDRVTLTADKSTSTAYMELSSLTSEDTAVYYCTRFYSYTYWGQGTLVTVSSASTKGPSVFPLAPSSKSTSGGTAALGCLVKDYFPEPVTVSWNSGALTSGVHTFPAVLQSSGLYSLSSVVTVPSSSLGTQTYICNVNHKPSNTKVDKKVEPKSCDKTHTCPPCPAPELLGGPDVFLFPPKPKDTLMISRTPEVTCVVVDVSHEDPEVKFNWYVDGVEVHNAKTKPREEQYNSTYRVVSVLTVLHQDWLNGKEYKCKVSNKALPLPEEKTISKAKGQPREPQVYTLPPSRDELTKNQVSLTCLVKGFYPSDIAVEWESNGQPENNYKTTPPVLDSDGSFFLYSKLTVDKSRWQQGNVFSCSVMHEALHNHYTQESLSLSP
chain 3: DIVMTQSPLSLPVTPGEPASISCQASESLVHSNRNTYLHWYLQKPGQSPQLLIYKVSNRFSGVPDRFSGSGSGTDFTLKISRVEAEDVGVYYCSQNTHVPPTFGQGTKVEIERTVAAPSVFIFPPSDEQLKSGTASVVCLLNNFYPREAKVQWKVDNALQSGNSQESVTEQDSKDSTYSLSSTLTLSKADYEKHKVYACEVTHQGLSSPVTKSFNRGEC
In the case of B2, the Kd in the assay with FcgRIIb stood at 610 nM; with FcgRIIIa F, 6.2 nM.
